Data on 6 molecules can be found in patent publication US20210130436A1 (published 2021).

B1: E24D/Q27R/E35D/T41S/M47V/L85Q CD80 IgV-Fc (Fc fusion, not shown: a dimerising Fc or GST)
chain: VIHVTKEVKEVATLSCGHNVSVEDLARTRIYWQKDKKMVLSMMSGDVNIWPEYKNRTIFDITNNLSIVILALRPSDEGTYECVVQKYEKDAFKREHLAEVTLSVKAD
B2: H18Y/V22A/E35D/T41S/M47V/T62N/A71G/A91G CD80 IgV-Fc (Fc fusion, not shown: a dimerising Fc or GST)
chain: B1 chain with H18Y, V22A, D24E, R27Q, T62N, A71G, Q85L, A91G
B3: E35D/M47L/V68M/A71G/L85Q/D90G CD80 IgV-Fc (Fc fusion, not shown: a dimerising Fc or GST)
chain: B1 chain with D24E, R27Q, S41T, V47L, V68M, A71G, D90G
B4: Q33R/M47V/T62N/A71G CD80 IgV-Fc (Fc fusion, not shown: a dimerising Fc or GST)
chain: B1 chain with D24E, R27Q, Q33R, D35E, S41T, T62N, A71G, Q85L
B5: E35D/D46E/M47L/V68M/L85Q/F92L CD80 IgV-Fc (Fc fusion, not shown: a dimerising Fc or GST)
chain: B1 chain with D24E, R27Q, S41T, D46E, V47L, V68M, F92L
B6: S15T/H18Y/E35D/M47V/T62A/N64S/A71G/L85Q/D90N CD80 IgV-Fc (Fc fusion, not shown: a dimerising Fc or GST)
chain: B1 chain with S15T, H18Y, D24E, R27Q, S41T, T62A, N64S, A71G, D90N

Residue numbers refer to the chain shown, from its start. In names and notes the source's numbering stands.

T2 sequence (Q9NZQ7 19-290): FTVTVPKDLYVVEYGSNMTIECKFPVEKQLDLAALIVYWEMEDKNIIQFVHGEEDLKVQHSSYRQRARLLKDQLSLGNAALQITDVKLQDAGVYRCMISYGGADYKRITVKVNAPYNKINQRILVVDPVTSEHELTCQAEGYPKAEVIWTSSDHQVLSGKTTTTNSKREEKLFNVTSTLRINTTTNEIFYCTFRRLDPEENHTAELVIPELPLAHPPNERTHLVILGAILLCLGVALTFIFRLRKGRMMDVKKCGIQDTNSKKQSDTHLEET

For one assay, the target named is T1, human CTLA-4 (human, UniProt P16410 36-223).
T1 construct: whole, on cells; also called huCTLA4
T1 sequence (P16410 36-223): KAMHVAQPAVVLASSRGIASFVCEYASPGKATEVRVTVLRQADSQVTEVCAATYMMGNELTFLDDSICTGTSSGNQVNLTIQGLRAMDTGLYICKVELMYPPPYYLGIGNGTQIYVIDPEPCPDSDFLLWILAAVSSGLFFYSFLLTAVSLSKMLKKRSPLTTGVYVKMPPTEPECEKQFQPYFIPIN
The assay can be described thus: flow cytometry, CHO cells stably expressing huCTLA4, 33.3 nM, PE anti-human Fc. (In general: In flow cytometry, cells or beads pass a laser one at a time.)
Regarding B1, the “Fold change to WT CD80” value was 13.5 fold and the “MFI at 33.3 nM” value worked out at 13900 MFI.

Consider B2, for which the “Fold change to WT CD80” value was 10 fold and the “MFI at 33.3 nM” value stood at 10300 MFI.

For the molecule B3, the “Fold change to WT CD80” value amounted to 10.1 fold and the “MFI at 33.3 nM” value turned out to be 10300 MFI.

For B4, the “Fold change to WT CD80” value was 0.3 fold and the “MFI at 33.3 nM” value worked out at 308 MFI.

In the case of B5, the “Fold change to WT CD80” value is 0.2 fold and the “MFI at 33.3 nM” value was 214 MFI.

For B6, the “Fold change to WT CD80” value is 10.7 fold and the “MFI at 33.3 nM” value was 11000 MFI.

Another assay concerns the target T2, human PD-L1 (human, UniProt Q9NZQ7 19-290).
T2 construct: whole, on cells; also called huPD-L1
The assay can be described thus: flow cytometry, CHO cells stably expressing huPD-L1, 33.3 nM, PE anti-human Fc.
On to B1, for which the “Fold change to WT” value turned out to be 34.3 fold and the “MFI at 33.3 nM” value came out at 2860 MFI.

Consider B2, for which the “Fold change to WT” value was 101 fold and the “MFI at 33.3 nM” value is 8460 MFI.

As to B3, the “Fold change to WT” value came to 202 fold and the “MFI at 33.3 nM” value is 16800 MFI.

As for B4, the “Fold change to WT” value was 146 fold and the “MFI at 33.3 nM” value is 12200 MFI.

With B5, the “Fold change to WT” value was determined as 158 fold and the “MFI at 33.3 nM” value was determined as 13200 MFI.

Consider B6, for which the “Fold change to WT” value was 166 fold and the “MFI at 33.3 nM” value amounted to 13900 MFI.

In a further assay the target is T3, human CD28 (human, UniProt P10747 19-220).
T3 construct: whole, on cells; Endogenous CD28 of Jurkat/IL2 reporter cells
In words: flow cytometry, Jurkat/IL2 reporter cells (endogenous CD28), 33.3 nM, PE anti-human Fc.
As for B1, the “Fold change to WT” value was determined as 1.6 fold and the “MFI at 33.3 nM” value is 66 MFI.

On to B2, for which the “Fold change to WT” value came to 38.5 fold and the “MFI at 33.3 nM” value came out at 1590 MFI.

On to B3, for which the “Fold change to WT” value turned out to be 33.9 fold and the “MFI at 33.3 nM” value amounted to 1400 MFI.

Consider B6, for which the “Fold change to WT” value came out at 25.9 fold and the “MFI at 33.3 nM” value stood at 1070 MFI.

Another assay deals with T2, human PD-L1. In words: flow cytometry; MFI on CHO/PD-L1 over MFI on Jurkat (CD28), 33.3 nM.
B1: the “Ratio of PDL1:CD28” value was 44 ratio.

Take B2: the “Ratio of PDL1:CD28” value was 5 ratio.

For the molecule B3, the “Ratio of PDL1:CD28” value was 12 ratio.

Regarding B4, the “Ratio of PDL1:CD28” value is 719 ratio.

For B5, the “Ratio of PDL1:CD28” value came to 863 ratio.

With B6, the “Ratio of PDL1:CD28” value was found to be 13 ratio.
